Substitutions are numbered along the chain they refer to. Each block holds one molecule with its values, some of them ahead of it.
Key:
[1] = target: T1, Rhesus D antigen (human, UniProt Q02161)
T1 sequence: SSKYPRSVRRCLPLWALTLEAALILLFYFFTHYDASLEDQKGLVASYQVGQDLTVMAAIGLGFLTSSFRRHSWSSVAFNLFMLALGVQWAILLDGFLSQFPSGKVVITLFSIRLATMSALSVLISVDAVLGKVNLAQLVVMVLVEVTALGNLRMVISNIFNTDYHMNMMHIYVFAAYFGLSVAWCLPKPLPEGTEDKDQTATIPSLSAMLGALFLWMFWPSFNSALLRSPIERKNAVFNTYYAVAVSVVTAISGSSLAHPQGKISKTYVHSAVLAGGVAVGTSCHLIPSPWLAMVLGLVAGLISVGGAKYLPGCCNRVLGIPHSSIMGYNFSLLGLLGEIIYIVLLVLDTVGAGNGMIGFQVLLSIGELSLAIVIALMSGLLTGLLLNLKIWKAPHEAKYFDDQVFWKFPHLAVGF

[2] = target: T1, Rhesus D antigen; assay: agglutination titre on a pool of papain-treated R1/r red blood cells, one hour at 37° C.
[3] = target: T1, Rhesus D antigen; assay: agglutination of red blood cells

% specific lysis (ADCC test, 51Cr release) (% specific lysis) [1]: 0
Molecule: "irrelevant" recombinant antibody (IgG1, κ) directed against a protein other than the Rhesus antigen

% specific lysis (ADCC test, 51Cr release) (% specific lysis) [1]: 93.3
titre (titre (1/x dilution)) [2]: 512
B1: r-IgG-D7C2 recombinant monoclonal antibody (antibody, V domains shown)
VH: QVQLEQWGAGLLKPSETLSLTCTVYGGSFSGYYWSWIRQPPGKGLEWIGEINHSGSTNYNPSLKSRVTISVDTSKNQFSLKLNSVTAADTAVYYCARAPEYKWKYHGDWFDPWGQGTTVTVSS
VL: DIELTQDPAVSVALGQTVRITCQGDSLRTYYASWYQQKPGQAPVLVIYGKNNRPSGIPDRFSGSSSGNTASLTITGAQAEDEADYFCNSGGKVFGGGTKLTVLG

binding result [3]: binds
B2: IgM-D7C2 human parental monoclonal antibody (antibody, V domains shown)
VH: B1 VH with E5Q
VL: B1 VL with D1Q, I2S, E3V

From US6312690, “Monoclonal recombinant anti-rhesus D (D7C2) antibody” (Institut Pasteur, dated 2001)
